Assay [1] concerns the target T1, Biotinylated His14-Avi-bdSUMO-tagged Nup98^716-866 (Xenopus tropicalis, UniProt A0A1B8XZT4, biotin on the Avi-tag).
T1 construct: also called Nup98 NPC anchor domain
In words: pull-down; biotinylated His14-Avi-bdSUMO-Nup98^716-866 immobilized on Streptavidin agarose; GFP-tagged TP377 bound without or with an equimolar amount or fivefold excess of nanobody competitor; elution by cleavage of the bdSUMO tag; SDS-PAGE, Coomassie. Conditions: both partners purified.

Assay [2] has as its target T2, Nup98 (endogenous, Xenopus egg extract) (Xenopus laevis (egg extract), UniProt A0A8J1MFV7).
T2 construct: Xenopus Nup98, FG-repeat nucleoporin; source: endogenous, Xenopus egg extract (high-speed supernatant)
Put plainly: affinity purification with mass spectrometry; biotinylated tagged nanobody on magnetic Streptavidin beads, Xenopus egg extract (HSS) 1 h at 4°C, washes in S250 and in 50 mM Tris/HCl pH 7.5, 300 mM NaCl, 0.05% Tween-20, RanQ69L•GTP wash, elution by SUMOStar protease; SDS-PAGE, Coomassie, bands identified by mass spectrometry. To be noted: one partner purified.

Assay [3] addresses T3, Nup98 in nuclear pore complexes of Xenopus laevis XL177 cells (Xenopus laevis XL177 cells, UniProt A0A8J1MFV7).
T3 construct: Xenopus laevis Nup98 within intact NPCs; also called (x)Nup98; source: endogenous, digitonin-permeabilized Xenopus laevis XL177 cells
In words: immunostaining of cells or tissue; digitonin-permeabilized Xenopus laevis XL177 cells, 1-10 nM fluorescent nanobody 15 min on ice, washed, then fixed; confocal laser scanning microscopy. To be noted: one partner purified.

B1: untagged TP377 produced in the oxidative periplasm (VHH)
VHH: QVQLVESGGGPVEAGGSLRLSCAASGRSFSNSVMAWFRQAPGKEREFLSVLNWSSGRTSIADSVKGRFTMSRDPAKITVYLQMNGLKPEDTAVYYCAASNRGSLYTLDNQNRYEDWGQGTQVTVSS
notes: also called oxidized, disulfide bond-stabilized nanobody; source: E. coli BLR periplasm
With B1, in assay [1], the binding result is listed as “binds”.

B2: untagged TP377 produced in the reductive cytoplasm of E. coli BLR (VHH)
VHH: QVQLVESGGGPVEAGGSLRLSCAASGRSFSNSVMAWFRQAPGKEREFLSVLNWSSGRTSIADSVKGRFTMSRDPAKITVYLQMNGLKPEDTAVYYCAASNRGSLYTLDNQNRYEDWGQGTQVTVSS
notes: also called reduced variant; source: E. coli BLR cytoplasm
As for B2, the binding result in assay [1] is “binds”.

B3: 3x Alexa Fluor 488-labeled TP377 (VHH)
VHH: QVQLVECGGGPVEAGGSLRLSCAASGRSFSNSVMAWFRQAPGKEREFLSVLNWSSGRTSIADSVKGRFTMCRDPAKITVYLQMNGLKPEDTAVYYCAASNRGSLYTLDNQNRYEDWGQGTQVTVSS
notes: also called 3xCys; source: E. coli cytoplasm, purified (Ni2+ chelate, bdNEDP1 cleavage), labeled with Alexa Fluor 488 maleimide; not shown: His14-bdNEDD8, N-terminal, cleaved
B3: the binding result in assay [1] was “binds”.

B4: Biotinylated His14-Avi-(GlySer)9-SUMOStar-(GlySer)9-tagged anti-Nup98 nanobody TP377 (VHH)
VHH: QVQLVESGGGPVEAGGSLRLSCAASGRSFSNSVMAWFRQAPGKEREFLSVLNWSSGRTSIADSVKGRFTMSRDPAKITVYLQMNGLKPEDTAVYYCAASNRGSLYTLDNQNRYEDWGQGTQVTVSS
notes: source: E. coli cytoplasm, co-expressed with BirA, purified (Ni2+ chelate, imidazole elution); not shown: His14, N-terminal, kept; (GlySer)9-scSUMOStar-(GlySer)9, N-terminal, kept
As for B4, the binding result in assay [2] is on record as “binds”.

B5: unlabeled TP377 (competitor in Figure 5—figure supplement 1c) (VHH)
VHH: QVQLVESGGGPVEAGGSLRLSCAASGRSFSNSVMAWFRQAPGKEREFLSVLNWSSGRTSIADSVKGRFTMSRDPAKITVYLQMNGLKPEDTAVYYCAASNRGSLYTLDNQNRYEDWGQGTQVTVSS
For B5, the binding result in assay [1] is “binds”.

B6: anti-Nup98 nanobody TP377 carrying a single N-terminal Alexa Fluor 647 maleimide (VHH)
VHH: QVQLVESGGGPVEAGGSLRLSCAASGRSFSNSVMAWFRQAPGKEREFLSVLNWSSGRTSIADSVKGRFTMSRDPAKITVYLQMNGLKPEDTAVYYCAASNRGSLYTLDNQNRYEDWGQGTQVTVSS
notes: not shown: His14-bdNEDD8, N-terminal, cleaved
As for B6, in assay [3], the binding result is given as “binds”.

B7: untagged TP377 produced in the mildly oxidative cytoplasm of E. coli SHuffle (VHH)
VHH: QVQLVESGGGPVEAGGSLRLSCAASGRSFSNSVMAWFRQAPGKEREFLSVLNWSSGRTSIADSVKGRFTMSRDPAKITVYLQMNGLKPEDTAVYYCAASNRGSLYTLDNQNRYEDWGQGTQVTVSS
notes: also called SHuffle-expressed TP377; source: E. coli SHuffle cytoplasm; not shown: His14-bdNEDD8, N-terminal, cleaved
For B7, in assay [1], the binding result is reported as “binds”.

The values above are taken from PMC4755751 (eLife, 2015).
